Results taken from paper PMC10003451, “Phosphorylated Peptide Derived from the Myosin Phosphatase Target Subunit Is a Novel Inhibitor of Protein Phosphatase-1” (International Journal of Molecular Sciences, 2023).

Tests used:
[1] = test system: native catalytic subunit of PP1 (PP1c); test: Phosphatase assay of native PP1c with ^32P-MLC20 substrate; assay type: biochemical, rabbit skeletal muscle; conditions: PP1c 1.5–2.2 nM, 1 µM ^32P-MLC20, pH 7.4, 30 °C; n = 4
Experimental: Figure 2 Effects of a phosphorylated peptide from MYPT1 on the activity of PP1c, PP2Ac and myosin phosphatase holoenzyme (Flag-MYPT1-PP1c). (A): The native catalytic subunit of PP1 (PP1c; ▼,●) or PP2A (PP2Ac; ∆) purified from rabbit skeletal muscle or Flag-MYPT1-PP1c overexpressed and isolated from tsa201 cells (○) was assayed in the presence of dephosphorylated (▼) or phosphorylated (○,●,∆) MYPT1 peptide of R^690QSRRS(pT696)QGVTL^701 (P-Thr696-MYPT1^690−701) with ^32P-MLC20 substrate as described in Section 4. Values are mean ± SD (n = 4). Phosphatase activity in the absence of peptide was taken 100%. (B): Interaction of recombinant PP1cα with the phosphorylated peptide assessed by microscale thermophoresis (MST) or (C): with isotherm titration calorimetry (ITC) as described in Section 4. […] Only the axis text 'MYPT1^690-701 peptides' names the substance, and no target is printed. / Panel C: the picture prints no substance label for the ITC parameters.
The ^32Pi released from ^32P-MLC20 substrate were determined as previously described. The assay (80 µL) to determine the half-life of dephoshorylation for ^32P-MLC20 (10 µM) in the presence of various concentration of P-Thr696-MYPT1^690−701 (10–500 µM) was carried out in a similar fashion except that 5 µL aliquots were removed from the reaction mixture at different intervals for radioactivity measurements.

[2] = target: T1, recombinant PP1cα (rPP1cα) (Homo sapiens, UniProt P62136); test: Microscale thermophoresis (MST); assay type: binding; conditions: rPP1cα 2 µM, peptide 9.16 nM-300 µM, 25 mM Tris/HCl, 100 mM NaCl, 1 mM DTT, 0.1% PEG 8000, pH 8.0; intrinsic fluorescence, Monolith NT.LabelFree
T1 construct: made in house; host or cells: E. coli
Experimental: The interaction of P-Thr696-MYPT1^690−701 and the recombinant PP1cα (rPP1cα) was studied by Monolith^TM NT.LabelFree (MST power: 40%; LED Power: 10%) instrument (NanoTemper Technologies GmbH, Munich, Germany). A 16-point two-fold P-Thr696-MYPT1^690−701 peptide dilution series was generated (9.16 nM-300 µM) in 25 mM Tris/HCl, 100 mM NaCl, 1 mM DTT, 0.1% PEG 8000, pH 8.0 and mixed with rPP1cα (2 µM). The mixtures were loaded into NT.LabelFree standard capillaries. The capillaries on the capillary tray were scanned and intrinsic fluorescence change of rPP1cα upon ligand binding was recorded. The data were analyzed by MO.Affinity Analysis v2.3 software.

[3] = target: T1, recombinant PP1cα (rPP1cα); test: Isothermal titration calorimetry (ITC); assay type: binding; conditions: rPP1cα 0.5–2 µM, peptide 5–20 µM, 25 mM Tris/HCl (pH 8.0), 150 mM NaCl, 1 mM TCEP, 25 °C; one set of site model
Experimental: Isothermal titration calorimetry (ITC) experiments were carried out with MicroCal ITC200 instrument. rPP1cα was dialyzed in 25 mM Tris/HCl (pH 8.0), 150 mM NaCl, 1 mM TCEP (assay buffer) for 3 h first, then 16 h with a fresh batch of solution. Prior to measurements, rPP1cα (0.5–2 µM) was transferred into the sample cell of the calorimeter while the reference cell was filled with the assay buffer. P-Thr696-MYPT1^690−701 (5–20 µM) in the assay was applied to the syringe and 2 µL aliquot (19 times) was injected into the cell at a stirring rate of 300 rpm at 25 °C. The reference power was 5 µcal/s. The titration data were analyzed with MicroCal ITC-Origin software using one set of site model to obtain binding parameters of protein–ligand interaction.

T1 sequence (P62136 whole entry): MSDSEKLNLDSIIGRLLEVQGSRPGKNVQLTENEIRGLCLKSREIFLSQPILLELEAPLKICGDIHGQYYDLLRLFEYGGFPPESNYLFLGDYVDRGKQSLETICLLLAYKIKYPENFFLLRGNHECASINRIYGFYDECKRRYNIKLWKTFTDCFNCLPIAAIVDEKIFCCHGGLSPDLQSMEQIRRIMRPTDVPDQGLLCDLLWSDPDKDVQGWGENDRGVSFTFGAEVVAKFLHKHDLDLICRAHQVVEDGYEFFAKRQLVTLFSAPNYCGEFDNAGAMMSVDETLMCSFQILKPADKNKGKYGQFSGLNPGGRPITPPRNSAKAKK

effect on PP1c activity [1]: without effect
Substance: MYPT1^690−701: synthesized MYPT1 peptide, non-phosphorylated (RQSRRSTQGVTL; UniProt O14974 690-701, looked up, fragment)
KD by MST [2]: no MST or ITC signals suitable for quantitative evaluation were obtained
KD by ITC [3]: no MST or ITC signals suitable for quantitative evaluation were obtained
